The RNAGym collection of RNA variant scans (doi:10.1093/nar/gkz1192)

B1: CPEB3 Ribozyme (parent)
chain: UAACAGGGGGCCACAGCAGAAGCGUUCACGUCGCAGCCCCUGUCAGAUUCUGGUGAAUCUGCGAAUUCUGCUGUAUAUCUC

Variants of: B1
Experiment: self-cleavage, relative activity (ratio to wild type); higher = more cleavage; in vitro, sequencing
Method in brief: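 Libraries of CPEB3 self-cleaving ribozyme mutants came from rounds of error-prone PCR and carried barcodes, which DNA sequencing matched to variants. In vitro transcription used T7 RNA polymerase at 37°C for 5 hours, with a further 15 min in DNase I before EDTA stopped the reaction; the ribozymes cleaved during both steps. The RNA was reverse transcribed with template switching and sequenced on Illumina. Relative activity is the cleaved/total read fraction of a variant divided by that of the unmutated ribozyme, averaged over three batches with at least 5 reads.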

| Variant | self-cleavage |
| --- | --- |
| UAACAGGGGGCCACAGCAGAGGCGUUCACGUCGCAGCCCCUAUCAGAUUCUGGUGAAUCUGCGAAUUCUGCUGUAUAUCUC [A21G G42A] | 0.25 |
| UAACAGGGGGCCACAGCAGAGGCGUUCACGUCGCAGCCCCUUUCAGAUUCUGGUGAAUCUGCGAAUUCUGCUGUAUAUCUC [A21G G42U] | 0.37 |
| UAACAGGGGGCCACAGCAGAGGCGUUCACGUCGCAGCCCCUGUAAGAUUCUGGUGAAUCUGCGAAUUCUGCUGUAUAUCUC [A21G C44A] | 0.18 |
| UAACAGGGGGCCACAGCAGAGGCGUUCACGUCGCAGCCCCUGUUAGAUUCUGGUGAAUCUGCGAAUUCUGCUGUAUAUCUC [A21G C44U] | 0.26 |
| UAACAGGGGGCCACAGCAGAGGCGCUCACGUCGCAGCCCCUGUCAGAUUCUGGUGAAUCUGCGAAUUCUGCUGUAUAUCUC [A21G U25C] | 0.29 |
| UAACAGGGGGCCACAGCAGAGGCGAUCACGUCGCAGCCCCUGUCAGAUUCUGGUGAAUCUGCGAAUUCUGCUGUAUAUCUC [A21G U25A] | 0.24 |
| UAACAGGGGGCCACAGCAGAGGCGUUCACGUCCCAGCCCCUGUCAGAUUCUGGUGAAUCUGCGAAUUCUGCUGUAUAUCUC [A21G G33C] | 0.14 |
| UAACAGGGGGCCACAGCAGAGGCGUUCACGUCUCAGCCCCUGUCAGAUUCUGGUGAAUCUGCGAAUUCUGCUGUAUAUCUC [A21G G33U] | 0.19 |
| UAACAGGGGGCCACAGCAGAGGCGUUCACGUCACAGCCCCUGUCAGAUUCUGGUGAAUCUGCGAAUUCUGCUGUAUAUCUC [A21G G33A] | 0.33 |
| UAACAGGGGGCCACAGCAGAGGCGUUCACGUCGCAGCCCCUGUCAGAUUCUGGUGAAUCUGCGAAUUCUGCUAUAUAUCUC [A21G G73A] | 1.21 |
| UAACAGGGGGCCACAGCAGAGGCGUUCACGUCGCAGCCCCUGUCAGAUUCUGGUGAAUCUGCGAAUUUUGCUGUAUAUCUC [A21G C68U] | 0.43 |
| UAACAGGGGGCCACAGCAGAGGCGUUCACGUCGCAGCCCCUGUCAGAUUCUGGUGAAUCUGCGAAUUGUGCUGUAUAUCUC [A21G C68G] | 0.2 |
| UAACAGGGGGCCACAGCAGAGGCGUUCACGUCGCAGCCCCUGUCAGAUUCUGGUGAAUCUGCGAAUUAUGCUGUAUAUCUC [A21G C68A] | 0.17 |
| UAACAGGGGGCCACAGCAGAGGCGUUCAUGUCGCAGCCCCUGUCAGAUUCUGGUGAAUCUGCGAAUUCUGCUGUAUAUCUC [A21G C29U] | 0.28 |
| UAACAGGGGGCCACAGCAGAGACGUUCACGUCGCAGCCCCUGUCAGAUUCUGGUGAAUCUGCGAAUUCUGCUGUAUAUCUC [A21G G22A] | 0.17 |
| UAACAGGGGGCCACAGCAGAGGCGUUAACGUCGCAGCCCCUGUCAGAUUCUGGUGAAUCUGCGAAUUCUGCUGUAUAUCUC [A21G C27A] | 0.14 |
| UAACAGGGGGCCACAGCAGAGGCGUUUACGUCGCAGCCCCUGUCAGAUUCUGGUGAAUCUGCGAAUUCUGCUGUAUAUCUC [A21G C27U] | 0.18 |

| Variant | self-cleavage |
| --- | --- |
| UAACAGGGGGCCACAGCAGAGGCGUUCACGUCGCAGUCCCUGUCAGAUUCUGGUGAAUCUGCGAAUUCUGCUGUAUAUCUC [A21G C37U] | 0.39 |
| UAACAGGGGGCCACAGCAGAGGCGUUCACGUCGCAGGCCCUGUCAGAUUCUGGUGAAUCUGCGAAUUCUGCUGUAUAUCUC [A21G C37G] | 0.19 |
| UAACAGGGGGCCACAGCAGAGGCGUUCACGUCGCAGACCCUGUCAGAUUCUGGUGAAUCUGCGAAUUCUGCUGUAUAUCUC [A21G C37A] | 0.42 |
| UAACAGGGGGCCACAGCAGAGGCGUUCACGUCGGAGCCCCUGUCAGAUUCUGGUGAAUCUGCGAAUUCUGCUGUAUAUCUC [A21G C34G] | 0.2 |
| UAACAGGGGGCCACAGCAGAGGCGUUCACGUCGCAGCCCCUGUCAGAUUCUGGUAAAUCUGCGAAUUCUGCUGUAUAUCUC [A21G G55A] | 0.42 |
| UAACAGGGGGCCACAGCAGAGGCGUUCACGUCGCAGCCCCUGUCAGAUUCUGGUUAAUCUGCGAAUUCUGCUGUAUAUCUC [A21G G55U] | 0.57 |
| UAACAGGGGGCCACAGCAGAGGCGUUCACGUCGCAGCCCCUGUCAGAUUCUGGUGAAUCUGAGAAUUCUGCUGUAUAUCUC [A21G C62A] | 0.2 |
| UAACAGGGGGCCACAGCAGAGGCGUUCACGUCGCAGCCCCUGUCAGAUUCUGGUGAAUCUGGGAAUUCUGCUGUAUAUCUC [A21G C62G] | 0.22 |
| UAACAGGGGGCCACAGCAGAGGCGUUCACGUCGCAGCCCCUGUCAGAUUCUGGUGAAUCUGUGAAUUCUGCUGUAUAUCUC [A21G C62U] | 0.19 |
| UAACAGGGGGCCACAGCAGAGGCGUUCACGUCGCAGCCCCUGUCAGAUUCUGGUGAAUCUGCGAAUUCUGCUGUAUGUCUC [A21G A77G] | 0.66 |
| UAACAGGGGGCCACAGCAGAGGCGUUCACGUCGCAGCCCCUGUCAGAUUCUGGUGAAUCUGCGAAUUCUGCUGUAUUUCUC [A21G A77U] | 0.71 |
| UAACAGGGGGCCACAGCAGAGGCGUUCACGUCGCAGCCCCUGUCAGAUUCUGGUGAAUCUGCGAAUUCUGCUGUAUCUCUC [A21G A77C] | 0.63 |
| UAACAGGGGGCCACAGCAGAGGCGUUCACGUCGCAGCCCCUGUCAGAUUCUAGUGAAUCUGCGAAUUCUGCUGUAUAUCUC [A21G G52A] | 0.72 |
| UAACAGGGGGCCACAGCAGAGGCGUUCACGUCGCAGCCUCUGUCAGAUUCUGGUGAAUCUGCGAAUUCUGCUGUAUAUCUC [A21G C39U] | 0.3 |
| UAACAGGGGGCCACAGCAGAGGCGUUCACGUCGCAGCCACUGUCAGAUUCUGGUGAAUCUGCGAAUUCUGCUGUAUAUCUC [A21G C39A] | 0.1 |
| UAACAGGGGGCCACAGCAGAGGCGUUCACGUCGCAGCCGCUGUCAGAUUCUGGUGAAUCUGCGAAUUCUGCUGUAUAUCUC [A21G C39G] | 0.37 |
| UAACAGGGGGCCACAGCAGAGGCGUUCACGUCGCAGCGCCUGUCAGAUUCUGGUGAAUCUGCGAAUUCUGCUGUAUAUCUC [A21G C38G] | 0.26 |
